Measured values as given in patent US20100015126A1, “Methods of Binding of Cross-Beta Structures By Chaperones” (priority 2006, published 2010).

B1: Histidine-rich glycoprotein precursor (protein)
chain: VSPTDCSAVEPEAEKALDLINKRRRDGYLFQLLRIADAHLDRVENTTVYYLVLDVQESDCSVLSRKYWNDCEPPDSRRPSEIVIGQCKVIATRHSHESQDLRVIDFNCTTSSVSSALANTKDSPVLIDFFEDTERYRKQANKALEKYKEENDDFASFRVDRIERVARVRGGEGTGYFVDFSVRNCPRHHFPRHPNVFGFCRADLFYDVEALDLESPKNLVINCEVFDPQEHENINGVPPHLGHPFHWGGHERSSTTKPPFKPHGSRDHHHPHKPHEHGPPPPPDERDHSHGPPLPQGPPPLLPMSCSSCQHATFGTNGAQRHSHNNNSSDLHPHKHHSHEQHPHGHHPHAHHPHEHDTHRQHPHGHHPHGHHPHGHHPHGHHPHGHHPHCHDFQDYGPCDPPPHNQGHCCHGHGPPPGHLRRRGPGKGPRPFHCRQIGSVYRLPPLRKGEVLPLPEANFPSFPLPHHKHPLKPDNQPFPQSVSESCPGKFKSGFPQVSMFFTHTFPK
B2: CDNA FLJ14473 fis, clone MAMMA1001080, highly similar to Homo sapiens SNC73 protein (SNC73) mRNA, immunoglobulin heavy constant alpha 1 (protein, UniProt P01876 1-398, looked up)
Immunoglobulin heavy constant …: ASPTSPKVFPLSLCSTQPDGNVVIACLVQGFFPQEPLSVTWSESGQGVTARNFPPSQDASGDLYTTSSQLTLPATQCLAGKSVTCHVKHYTNPSQDVTVPCPVPSTPPTPSPSTPPTPSPSCCHPRLSLHRPALEDLLLGSEANLTCTLTGLRDASGVTFTWTPSSGKSAVQGPPERDLCGCYSVSSVLPGCAEPWNHGKTFTCTAAYPESKTPLTATLSKSGNTFRPEVHLLPPPSEELALNELVTLTCLARGFSPKDVLVRWLQGSQELPREKYLTWASRQEPSQGTTTFAVTSILRVAAEDWKKGDTFSCMVGHEALPLAFTQKTIDRLADWQMPPPYVVLDLPQETLEEETPGANLWPTTITFLTLFLLSLFYSTALTVTSVRGPSGNREGPQY
B3: IGHM protein, immunoglobulin heavy constant gamma 2 (protein)
chain: ASTKGPSVFPLAPCSRSTSESTAALGCLVKDYFPEPVTVSWNSGALTSGVHTFPAVLQSSGLYSLSSVVTVPSSNFGTQTYTCNVDHKPSNTKVDKTVERKCCVECPPCPAPPVAGPSVFLFPPKPKDTLMISRTPEVTCVVVDVSHEDPEVQFNWYVDGVEVHNAKTKPREEQFNSTFRVVSVLTVVHQDWLNGKEYKCKVSNKGLPAPIEKTISKTKGQPREPQVYTLPPSREEMTKNQVSLTCLVKGFYPSDISVEWESNGQPENNYKTTPPMLDSDGSFFLYSKLTVDKSRWQQGNVFSCSVMHEALHNHYTQKSLSLSPGK
B4: Galectin-3-binding protein precursor (protein)
chain: VNDGDMRLADGGATNQGRVEIFYRGQWGTVCDNLWDLTDASVVCRALGFENATQALGRAAFGQGSGPIMLDEVQCTGTEASLADCKSLGWLKSNCRHERDAGVVCTNETRSTHTLDLSRELSEALGQIFDSQRGCDLSISVNVQGEDALGFCGHTVILTANLEAQALWKEPGSNVTMSVDAECVPMVRDLLRYFYSRRIDITLSSVKCFHKLASAYGARQLQGYCASLFAILLPQDPSFQMPLDLYAYAVATGDALLEKLCLQFLAWNFEALTQAEAWPSVPTDLLQLLLPRSDLAVPSELALLKAVDTWSWGERASHEEVEGLVEKIRFPMMLPEELFELQFNLSLYWSHEALFQKKTLQALEFHTVPFQLLARYKGLNLTEDTYKPRIYTSPTWSAFVTDSSWSARKSQLVYQSRRGPLVKYSSDYFQAPSDYRYYPYQSFQTPQHPSFLFQDKRVSWSLVYLPTIQSCWNYGFSCSSDELPVLGLTKSGGSDRTIAYENKALMLCEGLFVADVTDFEGWKAAIPSALDTNSSKSTSSFPCPAGHFNGFRTVIRPFYLTNSSGVD
B5: Apolipoprotein A-IV precursor (protein)
chain: EVSADQVATVMWDYFSQLSNNAKEAVEHLQKSELTQQLNALFQDKLGEVNTYAGDLQKKLVPFATELHERLAKDSEKLKEEIGKELEELRARLLPHANEVSQKIGDNLRELQQRLEPYADQLRTQVSTQAEQLRRQLTPYAQRMERVLRENADSLQASLRPHADELKAKIDQNVEELKGRLTPYADEFKVKIDQTVEELRRSLAPYAQDTQEKLNHQLEGLTFQMKKNAEELKARISASAEELRQRLAPLAEDVRGNLRGNTEGLQKSLAELGGHLDQQVEEFRRRVEPYGENFNKALVQQMEQLRQKLGPHAGDVEGHLSFLEKDLRDKVNSFFSTFKEKESQDKTLSLPELEQQQEQQQEQQQEQVQMLAPLES
B6: IGHM protein, immunoglobulin heavy chain mu (heavy chain disease protein) (protein)
chain: GSASAPTLFPLVSCENSPSDTSSVAVGCLAQDFLPDSITFSWKYKNNSDISSTRGFPSVLRGGKYAATSQVLLPSKDVMQGTDEHVVCKVQHPNGNKEKNVPLPVIAELPPKVSVFVPPRDGFFGNPRKSKLICQATGFSPRQIQVSWLREGKQVGSGVTTDQVQAEAKESGPTTYKVTSTLTIKESDWLGQSMFTCRVDHRGLTFQQNASSMCVPDQDTAIRVFAIPPSFASIFLTKSTKLTCLVTDLTTYDSVTISWTRQNGEAVKTHTNISESHPNATFSAVGEASICEDDWNSGERFTCTVTHTDLPSPLKQTISRPKGVALHRPDVYLLPPAREQLNLRESATITCLVTGFSPADVFVQWMQRGQPLSPEKYVTSAPMPEPQAPGRYFAHSILTVSEEEWNTGETYTCVVAHEALPNRVTERTVDKSTGKPTLYNVSLVMSDTAGTCY
B7: FLJ00385 protein (Fragment), immunoglobulin heavy constant mu (protein)
chain: GSASAPTLFPLVSCENSPSDTSSVAVGCLAQDFLPDSITFSWKYKNNSDISSTRGFPSVLRGGKYAATSQVLLPSKDVMQGTDEHVVCKVQHPNGNKEKNVPLPVIAELPPKVSVFVPPRDGFFGNPRKSKLICQATGFSPRQIQVSWLREGKQVGSGVTTDQVQAEAKESGPTTYKVTSTLTIKESDWLGQSMFTCRVDHRGLTFQQNASSMCVPDQDTAIRVFAIPPSFASIFLTKSTKLTCLVTDLTTYDSVTISWTRQNGEAVKTHTNISESHPNATFSAVGEASICEDDWNSGERFTCTVTHTDLPSPLKQTISRPKGVALHRPDVYLLPPAREQLNLRESATITCLVTGFSPADVFVQWMQRGQPLSPEKYVTSAPMPEPQAPGRYFAHSILTVSEEEWNTGETYTCVVAHEALPNRVTERTVDKSTGKPTLYNVSLVMSDTAGTCY
B8: complement C4a (protein, UniProt P0C0L4 680-756, looked up)
C4a anaphylatoxin: NVNFQKAINEKLGQYASPTAKRCCQDGVTRLPMMRSCEQRAARVQQPDCREPFLSCCQFAESLRKKSRDKGQAGLQR
modifications: C4a anaphylatoxin

Legend:
BiP-Sepharose [1] = molecular target: T1, BiP-Sepharose (Homo sapiens, UniProt P11021); assay: Experiment 2: BiP-Sepharose extraction from six synovial fluid samples of RA patients and mass spectrometry; type: binding; details: BiP-Sepharose eluate, synovial fluid of RA patient
T1 construct: The human BiP gene except the signal peptide encoding region was obtained from Geneart (Germany); linker […]; made in house; host or cells: HEK 293E cells, transient transfection, PABC674 vector; secreted into the medium
Description: (§1) Six samples were incubated with the BiP-Sepharose, IgIV-Sepharose and the control-Sepharose: Normal pooled plasma, plasma of a patient I or of a patient II, with AL amyloidosis, serum of a patient III with RA (Rheumatoid Factor (RF) titer 682), control serum and synovial fluid of a patient IV with RA (RF titer 23). All samples were diluted 20× in HBS and applied to 200 μl beads in two volumes of 500 μl. One volume was incubated for 4 h at RT and supernatant was discarded after centrifugation (2 minutes at 1400 rpm). Subsequently, the second volume was applied to the same matrix and incubated overnight on a roller device at 4° C. […] To collect the eluates, the matrices were centrifuged and the two eluates were pooled for each sample.
(§2) Protein digests were desalted as described (Rappsilber et al., 2003), vacuum dried and dissolved in 2.5% formic acid.
(§3) For analysis of peptide mixtures, an Agilent 1100 HPLC system (Agilent Technologies) connected to a Thermo Finnigan LTQ-MS (Thermo Electron, Bremen, Germany) was used. Protein digests were injected on a trap column (Reprosil C18 RP (Dr Maisch, Germany), 20 mm×100 μm I.D.) at 5 μl/minute. Subsequently, the peptides were transferred with a split-reduced flow rate of 100 nL/minute solvent A (0.1 M acetic acid) on the analytical column (Reprosil C18 RP, 20 cm×50 μm I.D.). […] The column effluent was directly introduced into the ESI source of the mass spectrometer via a butt-connected nano-ESI emitter (New Objectives, Woburn, Mass.). The mass spectrometer was operated in the positive ion mode and parent ions were selected for fragmentation in data-dependent mode.
(§4) After mass spectrometric measurements, peak lists were generated using BioWorks software (Thermo Electron, Bremen, Germany). Protein identification was performed using Mascot software (www.matrixscience.com) by searching the IPIhuman database (version 3.24, downloaded from ftp://ftp.ebi.ac.uk/pub/databases/IPI/current) using the following settings: fully tryptic peptides, peptide tolerance 0.8 Da, MS/MS tolerance 0.9 Da, 1 missed cleavage allowed, carbamidomethyl (Cys) and oxidation (Met) as fixed and variable modification, respectively. The Scaffold software package (www.proteomesoftware.com) was used to parse the data and to filter peptides at a confidence level of 95%, allowing only protein identification with at least 2 peptides identified.
Those samples are listed below: • 1. […] One difference when compared to the protocol described above is that now with the twelve samples, elution buffer comprised 1 M NaCl. Again, a misfolded protein or a protein binding to misfolded protein is identified uniquely in the synovial fluid when no or a relatively very low number of fragments are detected in eluates of control-Sepharose.

BiP-Sepharose [2] = molecular target: T1, BiP-Sepharose; assay: BiP-Sepharose extraction of proteins from patient plasma, serum, synovial fluid and mass-spectrometric identification; type: binding; details: compared to AL amyloidosis patient II
Description: BiP was coated on CNBr-Sepharose (GE-Healthcare, Amersham Biosciences). Immobilization of BiP was performed essentially as described elsewhere in this application for NHS-Sepharose. CNBr-matrix was dissolved at 200 mg/ml in 1 mM HCl and treated the same as the NHS-matrix, except for an additional 5 minutes activation step in 1 mM HCl on a roller device before washing in this buffer. BiP was diluted in immobilization buffer (50 mM NaCl and 40 mM NaHCO3) to a concentration of 820 μg/ml. A total volume of 2 ml BiP solution (1640 μg BiP) was incubated with 360 mg beads. Negative control matrix was exposed to immobilization buffer, only. After overnight immobilization matrix was blocked with Tris and washed.
as §1, §2, §3, §4

T1 sequence (P11021 19-654): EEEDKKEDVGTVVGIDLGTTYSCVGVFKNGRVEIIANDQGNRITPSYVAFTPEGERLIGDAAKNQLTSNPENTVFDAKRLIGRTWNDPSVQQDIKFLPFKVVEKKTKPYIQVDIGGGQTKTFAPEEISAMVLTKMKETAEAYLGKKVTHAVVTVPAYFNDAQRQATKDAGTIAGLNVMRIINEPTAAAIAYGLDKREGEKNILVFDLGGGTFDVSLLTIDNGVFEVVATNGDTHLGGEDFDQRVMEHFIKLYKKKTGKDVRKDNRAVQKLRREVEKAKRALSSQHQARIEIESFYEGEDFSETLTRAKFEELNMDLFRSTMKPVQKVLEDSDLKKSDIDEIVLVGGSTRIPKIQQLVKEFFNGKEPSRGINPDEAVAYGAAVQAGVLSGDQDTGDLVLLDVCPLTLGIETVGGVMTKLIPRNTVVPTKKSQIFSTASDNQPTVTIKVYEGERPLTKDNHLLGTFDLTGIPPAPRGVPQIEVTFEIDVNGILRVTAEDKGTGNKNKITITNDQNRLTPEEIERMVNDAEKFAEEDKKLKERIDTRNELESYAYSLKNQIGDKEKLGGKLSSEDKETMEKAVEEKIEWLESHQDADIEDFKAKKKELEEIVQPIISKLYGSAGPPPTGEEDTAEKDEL

Molecule | # of unique peptides (BiP-Sepharose [1]; Sample 1B) | # of unique peptides (BiP-Sepharose [1]; Sample 2B) | # of unique peptides (BiP-Sepharose [1]; Sample 5B) | # of unique peptides (BiP-Sepharose [1]; Sample 3B) | Specific binding to BiP-Sepharose from normal pooled plasma (BiP-Sepharose [2])
B1 | 2 | 1 | 1 |  | 
B2 | 2 |  | 1 | 1 | 
B3 | 1 | 1 |  |  | 
B4 | 1 |  |  | 1 | 
B5 | 3 |  |  |  | 
B6 | 3 |  |  | 1 | 
B7 | 1 | 1 |  | 2 | 
B8 |  |  |  |  | specifically bound
